The values that follow come from paper PMC5105069, “Structural assemblies of the di- and oligomeric G-protein coupled receptor TGR5 in live cells: an MFIS-FRET and integrative modelling study” (Scientific Reports, 2016).

Data set [1] concerns the target T1, TGR5 wt fused to GFP or mCherry (TGR5 wt-GFP and TGR5 wt-mCherry), Q8TDU6.
T1 chain: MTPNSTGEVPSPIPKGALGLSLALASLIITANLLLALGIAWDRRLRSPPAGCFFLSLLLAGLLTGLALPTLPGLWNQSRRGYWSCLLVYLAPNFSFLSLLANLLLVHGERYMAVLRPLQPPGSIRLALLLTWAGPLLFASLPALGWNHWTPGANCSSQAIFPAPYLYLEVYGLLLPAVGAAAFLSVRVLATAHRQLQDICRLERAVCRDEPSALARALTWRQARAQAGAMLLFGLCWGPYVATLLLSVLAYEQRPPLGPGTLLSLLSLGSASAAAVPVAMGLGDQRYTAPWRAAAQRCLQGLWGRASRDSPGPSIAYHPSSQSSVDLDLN
As to the kind of experiment: FRET or BRET; MFIS-FRET in live HEK293 cells; GFP (donor) and mCherry (acceptor) on the C-terminus of TGR5; acceptor titration up to donor:acceptor 1:40; total TGR5 0.5-13 uM; also before and after 10 uM taurocholate (no change); KD2 is of the step tetramer to dimers, modelled by a dimer/tetramer simulation of E_mean against the donor-acceptor ratio with KD1 of the dimer fixed to 10 nM. Particulars: remark: other sources report otherwise.

Data set [2] concerns the molecule itself. The data set is described as above.

B1: TGR5 wt fused to GFP or mCherry (TGR5 wt-GFP and TGR5 wt-mCherry), Q8TDU6 1-330 (receptor)
chain: MTPNSTGEVPSPIPKGALGLSLALASLIITANLLLALGIAWDRRLRSPPAGCFFLSLLLAGLLTGLALPTLPGLWNQSRRGYWSCLLVYLAPNFSFLSLLANLLLVHGERYMAVLRPLQPPGSIRLALLLTWAGPLLFASLPALGWNHWTPGANCSSQAIFPAPYLYLEVYGLLLPAVGAAAFLSVRVLATAHRQLQDICRLERAVCRDEPSALARALTWRQARAQAGAMLLFGLCWGPYVATLLLSVLAYEQRPPLGPGTLLSLLSLGSASAAAVPVAMGLGDQRYTAPWRAAAQRCLQGLWGRASRDSPGPSIAYHPSSQSSVDLDLN
A word on the stoichiometry N: it is the number of molecules, sites or subunits per partner or assembly. Take B1: in data set [1], the KD2 (tetramer to dimers, modeled) was 70 nM and the stoichiometry N was 4.

B2: TGR5 Y111A fused to GFP or mCherry (receptor, UniProt Q8TDU6 1-330, looked up)
chain: MTPNSTGEVPSPIPKGALGLSLALASLIITANLLLALGIAWDRRLRSPPAGCFFLSLLLAGLLTGLALPTLPGLWNQSRRGYWSCLLVYLAPNFSFLSLLANLLLVHGERAMAVLRPLQPPGSIRLALLLTWAGPLLFASLPALGWNHWTPGANCSSQAIFPAPYLYLEVYGLLLPAVGAAAFLSVRVLATAHRQLQDICRLERAVCRDEPSALARALTWRQARAQAGAMLLFGLCWGPYVATLLLSVLAYEQRPPLGPGTLLSLLSLGSASAAAVPVAMGLGDQRYTAPWRAAAQRCLQGLWGRASRDSPGPSIAYHPSSQSSVDLDLN
notes: TGR5 (GPBAR-1, M-BAR) with Y111A in the ERY motif; Two differently tagged copies (GFP donor, mCherry acceptor), co-expressed; Each copy carries only one fluorescent protein; also called Y111A variant; source: HEK293, transiently transfected, in live cells; not shown: GFP, C-terminal, kept; mCherry, C-terminal, kept
Turning to B2, the “stoichiometry N” value in data set [2] is 2.

B3: TGR5 Y111F fused to GFP or mCherry (receptor, UniProt Q8TDU6 1-330, looked up)
chain: MTPNSTGEVPSPIPKGALGLSLALASLIITANLLLALGIAWDRRLRSPPAGCFFLSLLLAGLLTGLALPTLPGLWNQSRRGYWSCLLVYLAPNFSFLSLLANLLLVHGERFMAVLRPLQPPGSIRLALLLTWAGPLLFASLPALGWNHWTPGANCSSQAIFPAPYLYLEVYGLLLPAVGAAAFLSVRVLATAHRQLQDICRLERAVCRDEPSALARALTWRQARAQAGAMLLFGLCWGPYVATLLLSVLAYEQRPPLGPGTLLSLLSLGSASAAAVPVAMGLGDQRYTAPWRAAAQRCLQGLWGRASRDSPGPSIAYHPSSQSSVDLDLN
notes: TGR5 (GPBAR-1, M-BAR) with Y111F in the ERY motif; Two differently tagged copies (GFP donor, mCherry acceptor), co-expressed; Each copy carries only one fluorescent protein; also called Y111F variant; source: HEK293, transiently transfected, in live cells; not shown: GFP, C-terminal, kept; mCherry, C-terminal, kept
As to B3, in data set [2], the “stoichiometry N” value was 4.
